Results as given in patent US20030135880A1, “Compositions and methods for halogenation reactions” (priority 2002, published 2003).

Assays:
PrnA = target: T1, PrnA (Pseudomonas fluorescens, UniProt P95480); assay: Activation of PrnA by electron transferases, 2 h assay (Example 2); assay type: biochemical; settings: 20 microliter PrnA, 50 microliter NADH, 50 microliter electron transferase, room temperature
T1 construct: made in house; host or cells: Pseudomonas fluorescens BL915deltaORF1-4 with plasmid pPEH14 (prnA)
Procedure: The following components are used in examples 1-4 below: PrnA (described for Example 1 above) at 0.36 mg/ml, Assay Mixture containing HEPES (100 mM), glucose-6-phosphate, disodium salt (50 mM), D-Trp (5 mM), NaCl (5 mM). Aspergillus niger catalase (39 U/ml), bovine erythrocyte superoxide dismutase (15 U/ml), Leuconostoc mesenteroides glucose-6-phosphate dehydrogenase (10 U/ml). NADH-(3 mg/ml) NADPH (3 mg/ml).
Each assay contains the assay mixture, either NADH (for samples containing Fre and the NAD(P)H:FMN reductase) or NADPH (for samples containing FNR or FNR and Fd), PrnA and the indicated electron transferase. Negative control samples are incubated in parallel; these substituted buffer for PrnA. Quantification standards are prepared by diluting 0,1, 2 or 5 microliter of 7-Cl-Trp standard (1 mM) in 100 microliter Assay Mixture, 50 microliter NADH, 20 microliter PrnA and 50 microliter buffer; the tubes were heated to 100 C. prior to addition of PrnA, then heated an additional 2 min. Further processing is in parallel with the enzymatic reactions. All samples are mixed for 2 h at room temperature. Reactions are stopped and samples processed as described above in Example 1, including using the HPLC Analytical method PrnA1 as described in Example 1.

PrnC = target: T2, PrnC (Pseudomonas fluorescens, UniProt P95482); assay: In vitro halogenation with PrnC: chlorination of MDA to APRN (Example 3); assay type: biochemical, P. fluorescens; settings: Extract #2 (PrnC depleted of P2) plus 20 microliter electron transferase, NADH, overnight
T2 construct: made in house; host or cells: P. fluorescens (pPEH/prnC/134Δprn), plasmid pPEH-PrnC with tac promoter
T2 sequence (P95482 whole entry, looked up): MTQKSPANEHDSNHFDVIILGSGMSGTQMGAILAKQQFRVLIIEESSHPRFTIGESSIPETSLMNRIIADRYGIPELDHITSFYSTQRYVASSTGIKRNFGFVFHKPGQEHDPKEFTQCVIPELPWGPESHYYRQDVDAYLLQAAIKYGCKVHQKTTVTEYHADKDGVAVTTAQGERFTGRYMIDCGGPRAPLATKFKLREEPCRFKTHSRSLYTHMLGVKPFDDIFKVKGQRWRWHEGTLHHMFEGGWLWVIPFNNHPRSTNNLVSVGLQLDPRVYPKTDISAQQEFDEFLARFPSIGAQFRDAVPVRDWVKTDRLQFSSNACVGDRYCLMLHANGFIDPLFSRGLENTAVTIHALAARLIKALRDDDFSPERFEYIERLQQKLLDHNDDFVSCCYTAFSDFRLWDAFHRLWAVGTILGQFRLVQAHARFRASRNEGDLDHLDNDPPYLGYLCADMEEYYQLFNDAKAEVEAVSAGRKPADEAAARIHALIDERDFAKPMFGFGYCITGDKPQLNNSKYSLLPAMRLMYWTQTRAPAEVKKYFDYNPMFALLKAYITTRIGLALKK
Procedure: Fre, ferrodoxin NADP reductase, ferrodoxin and NADPH FMN-reductase are tested for the ability to activate P. fluorescens PrnC that was depleted of endogenous electron transferase (P2) as described below. PrnC catalyzes chlorination of monodechloroaminopyrrolnitrin (MDA) to yield aminopyrrolnitrin (APRN).
The following materials are prepared for use in assays described below. Buffer 100 mM Tris/Cl, 1 mM EDTA. pH 7.5. Monodechloroaminopyrrolnitrin (MDA) 74.2 mM is prepared by culture of Pseudomonas fluorescens expressing PrnA and PrnB as described in (Kirner et al,1998) which is herein incorporated by reference in its entirety. The assay mix comprises FAD (5 μM) and MDA (742 μM) in buffer. […]
The assays described below are run as follows; Extract #2 is mixed with the indicated electron transferase, assay mix and either NADH or NADPH as indicated. The native activity of PrnC prior to removal of the P2 activity is determined by a parallel sample in which extract #1 is mixed with assay mix and NADH. […] Samples are analyzed by PrnC_Iso method described below. The 220 nm absorbance chromatogram is analyzed and integrated. PrnC activity is expressed as 100 times the ratio of the APRN peak area to the sum of the peak areas of APRN and MDA. Assuming equal extinction coefficients at 220 nm the calculated ratio is equivalent to the net % conversion of MDA to APRN by halogenation. […]

T1 sequence (P95480 whole entry): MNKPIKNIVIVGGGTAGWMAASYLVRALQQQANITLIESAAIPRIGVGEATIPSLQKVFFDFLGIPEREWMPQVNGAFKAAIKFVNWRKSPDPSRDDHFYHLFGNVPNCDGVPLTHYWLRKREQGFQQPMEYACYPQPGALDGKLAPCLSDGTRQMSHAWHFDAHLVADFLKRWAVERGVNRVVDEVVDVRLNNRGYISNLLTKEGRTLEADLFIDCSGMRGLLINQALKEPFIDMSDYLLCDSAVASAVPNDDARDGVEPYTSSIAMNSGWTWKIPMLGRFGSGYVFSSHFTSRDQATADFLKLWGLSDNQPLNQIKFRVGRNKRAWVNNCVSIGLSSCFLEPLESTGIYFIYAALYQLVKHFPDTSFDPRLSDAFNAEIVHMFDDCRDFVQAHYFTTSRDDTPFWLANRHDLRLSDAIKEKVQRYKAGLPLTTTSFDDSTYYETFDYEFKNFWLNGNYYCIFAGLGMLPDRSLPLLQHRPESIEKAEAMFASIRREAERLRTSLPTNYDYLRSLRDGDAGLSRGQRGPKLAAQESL

Question: How did the “Net 7-Cl-Trp produced” value (PrnA) turn out when “ferrodoxin NADP reductase and ferrodoxin: Spinach ferredoxin NADP reductase used together with spinach ferredoxin (Fd)” was run?
Answer: Its value is 9.15 nmol.

Question: What about the “PrnC activity, conversion of MDA to APRN” value (PrnC) of the same substance?
Answer: Its value is 2.5%.
